# Positions of bridges follow the written chain, without caps; N, C: chain ends. No end group written: not given here.
# T1: human CD154 expressed on the cell surface of J558L cells (murine myeloma cell line transfected with human … (human, UniProt P29965 1-261))
# T1 construct: whole, on cells; also called CD40L; CD40 ligand
# T1 sequence (looked up): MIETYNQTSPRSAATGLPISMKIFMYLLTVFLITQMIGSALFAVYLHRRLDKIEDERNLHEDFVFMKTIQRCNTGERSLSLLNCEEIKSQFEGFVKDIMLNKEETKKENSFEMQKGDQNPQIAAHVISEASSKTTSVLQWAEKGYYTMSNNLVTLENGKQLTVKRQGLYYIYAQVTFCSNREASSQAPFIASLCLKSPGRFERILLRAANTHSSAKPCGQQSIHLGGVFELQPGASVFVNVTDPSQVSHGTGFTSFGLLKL
# B1: peptide 4.10 tagged with a 6 histidines tail (-His6) (peptide)
# peptide: CLPTRHMACHHHHHH
# modifications: disulfide 1-9
# notes: Synthetic peptide; also called -his6 peptide
# B2: peptide 4.7 = 4.12 tagged with a 6 histidines tail (-His6) (peptide)
# peptide: CTPGKPHSCHHHHHH
# modifications: disulfide 1-9
# notes: as for B1
# B3: peptide 4.4 tagged with a 6 histidines tail (-His6) (peptide)
# peptide: CGTHSSRICHHHHHH
# modifications: disulfide 1-9
# notes: as for B1
# B4: peptide 4.10 with the residue at position 6 replaced with alanine (peptide)
# peptide: CLPTRAMAC
# notes: also called mutated peptide (position 6)
# B5: peptide 4.2 = 4.3 tagged with a 6 histidines tail (-His6) (peptide)
# peptide: CPSGHTKACHHHHHH
# modifications: disulfide 1-9
# notes: as for B1
# B6: peptide 4.10 with the residue at position 4 replaced with alanine (peptide)
# peptide: CLPARHMAC
# notes: also called mutated peptide (position 4)
# B7: peptide 4.6 tagged with a 6 histidines tail (-His6) (peptide)
# peptide: CLGTQNKECHHHHHH
# modifications: disulfide 1-9
# notes: as for B1
# B8: peptide 4.8 tagged with a 6 histidines tail (-His6) (peptide)
# peptide: CKAASANICHHHHHH
# modifications: disulfide 1-9
# notes: as for B1
# B9: control peptide 4.10-ala (peptide)
# peptide: CLPTAHMAC
# notes: also called peptide 4.10 with alanine at position 5
# B10: peptide 4.11 tagged with a 6 histidines tail (-His6) (peptide)
# peptide: CLSAVHNMCHHHHHH
# modifications: disulfide 1-9
# notes: as for B1
# Columns and labels:
# [1] = target: T1, human CD154 expressed on the cell …; assay: flow cytometry, -His6 peptide on J558L cells, PE anti-His6 antibody
# Method: FIG. 2 represents the binding of the seven peptides obtained from the human CD154-binding clones and tagged with a 6 histidines tail (-His₆) to the J558L CD154⁺ cells. […] The cells were incubated with each of the -His₆-tagged peptides and then with a phycoerythrin-conjugated secondary antibody specific for the-His₆ tail. […] For each experimental condition, 10,000 events were analyzed and the values are the mean and standard deviation of 3 different experiments. All of the peptides are capable of specifically binding to the CD154 on the J558L CD154⁺ cells and are not capable of binding to the control J558 cells.
# The peptides were synthesized and conjugated with biotin (-bio) or with a 6-histidine tail (-his₆) so as to enable in vitro and in vivo localization. […] Furthermore, a competition assay between the peptides and an anti-human CD154 fluorescein-conjugated antibody (Serotec) specifically recognizing the active site of CD154 was carried out. The J558L cells were incubated with the his₆-peptides for 30 minutes at room temperature and then with anti-human CD154 fluorescein-conjugated antibody for another 30 minutes at room temperature.
# [2] = target: T1, human CD154 expressed on the cell …; assay: binding to CD154+ J558L cells
# [3] = target: T1, human CD154 expressed on the cell …; assay: binding to J558L cells
# Method: The murine myeloma cells transfected with human CD154, J558L, were incubated with each of the seven anti-CD154 peptides tagged with a 6 histidines tail (-His₆), and then with the anti-CD154 fluorescein-conjugated antibody. The ability of the peptides to compete with the anti-CD154 antibody for the binding to the CD154 molecule expressed on the surface of the J558L cells was evaluated by flow cytometry, as the reduction in the fluorescence intensity compared to the positive control represented by cells incubated with the anti-human CD154 fluorescein-conjugated antibody alone. […] The amino acid sequence of the control peptide differs from that of peptide 4.10 in that an arginine residue is replaced with an alanine residue at amino acid position 5.
# The peptides were synthesized and conjugated with biotin (-bio) or with a 6-histidine tail (-his₆) so as to enable in vitro and in vivo localization. […] Furthermore, a competition assay between the peptides and an anti-human CD154 fluorescein-conjugated antibody (Serotec) specifically recognizing the active site of CD154 was carried out.
Binder,binding result [1],other results
B1,binds,
CIPTRHMAC [modified peptide 4.101],,binding result [2]: no binding
CIPTRHMVC [modified peptide 4.103],,binding result [2]: no binding
B2,binds,
B3,binds,
B4,,binding result [3]: no binding
CLPTRWMAC [modified peptide 4.104],,binding result [2]: no binding
B5,binds,
B6,,binding result [3]: no binding
CLPSRHMAC [modified peptide 4.102],,binding result [2]: no binding
B7,binds,
B8,binds,
B9,,binding result [3]: no binding
B10,binds,

# From patent US20110144038A1 (FRESENIUS MEDICAL CARE DEUTSCHLAND G M B H, published 2011)
